In experiment [1] the target is T1, MUC1-C-L-6×His (His-tagged human MUC1-C protein extracellular domain) (human, UniProt P15941 961-1152).
T1 construct: template human MUC1 UniProt P15941; expressed in 293 cells; also called hMUC1-C-L-his; MUC1-C-L-His
Put plainly: SPR Biacore 8K, antibody on Protein A chip, 1:1 fit.

Experiment [2] concerns the target T2, Cynomolgus MUC1 his (Cat. #MU1-C52H5, Acro) (cynomolgus).
T2 construct: bought reagent; also called Cyno MUC1-His
Put plainly: SPR Biacore T200, antibody on Protein A chip, 1:1 fit.

Experiment [3] concerns the target T3, human EGFR-His antigen (human, UniProt P00533 25-645).
T3 construct: also called hEGFR-His
Put plainly: SPR Biacore 8K, antibody on Protein A chip, 1:1 fit.

In experiment [4] the target is T3, human EGFR-His antigen. Put plainly: SPR Biacore T200, antibody on Protein A chip, 1:1 fit.
The target of experiment [5] is T4, cynomolgus EGFR-his (Cat. #90285-C08H, Sino Biological) (cynomolgus, UniProt A0A2K5WK39 25-645).
T4 construct: bought reagent; also called Cyno EGFR-His
Described as above.

For experiment [6], the target named is T3, human EGFR-His antigen. Put plainly: SPR Biacore 8K, antibody on Protein A chip; Ag1 hMUC1-C-His bound first, Ag2 hEGFR-His.
Experiment [7] concerns the target T3, human EGFR-His antigen. Put plainly: SPR Biacore 8K, antibody on Protein A chip; Ag1 blank, Ag2 hEGFR-His.
The target in experiment [8] is T5, cyno MUC1-C on stably transfected CHOK1 cells (cyno).
T5 construct: domain: MUC1-C; also called CHOK1-cyno-MUC1-C cells; Monkey MUC1-CT
Briefly: FACS, CHOK1-cyno-MUC1-C.

The target of experiment [9] is T1, MUC1-C-L-6×His (His-tagged human MUC1-C …). Put plainly: ELISA, coated antigen, hybridoma supernatant.
The target in experiment [10] is T6, human EGFR as expressed on tumour cell lines (HCC827, T47D, HPAC) (human, UniProt P00533 25-1210).
T6 construct: whole, on cells; the cell line is named under assay; also called HCC827 cells; T47D cells
Put plainly: FACS, HCC827.

In experiment [11] the target is T6, human EGFR as expressed on tumour cell …. Briefly: FACS, HPAC.
Experiment [12] has as its target T3, human EGFR-His antigen. Put plainly: SPR Biacore 8K, antibody on Protein A chip, 1:1 fit. The source holds these as a separate data set.

Consider nine molecules from patent publication US20260232830A1 (JIANGSU HENGRUI PHARMACEUTICALS, published 2026).

B1: M4-H1L1 (antibody, human IgG1, kappa)
heavy: not shown
light: DIQMTQSPSSLSASVGDRVTITCSASSSVFNMNWYQQKPGKSPKLWIYDISKLASGVPSRFSGSGSGTDFTLTISSLQPEDFATYYCQQRSFYPPTFGGGTKVEIKRTVAAPSVFIFPPSDEQLKSGTASVVCLLNNFYPREAKVQWKVDNALQSGNSQESVTEQDSKDSTYSLSSTLTLSKADYEKHKVYACEVTHQGLSSPVTKSFNRGEC
notes: humanized, human IgG1
With B1, the dissociation constant Kd amounted to 5.27 nM in experiment [1] and 18.9 nM in [2].

B2: M4H1L1-ZalH4 (bispecific antibody, human IgG1, kappa)
heavy: not shown
light: B1 light
chain 1: not shown
chain 2: DIQLTQSPSSLSASVGDRVTITCRASQDISSALVWYQQKPGKAPKLLIYDASSLESGVPSRFSGSESGTDFTLTISSLQPEDFATYYCQQFNSYPLTFGGGTKVEIKGGGGSSGAPRFLTRPKASVVSVGKDATLSCQIVGNPFPQVSWEKDKQPVTAGVRFRLAQDGDLYRLKILDLQLSDSGQYVCRARNAHGEAFACLGLQVDAEA
notes: also called anti-EGFR-MUC1 bispecific antibody
For the molecule B2, the dissociation constant Kd with human EGFR-His antigen [3] was found to be 10.4 nM; in the experiment with human EGFR-His antigen [4] it was 14.8 nM; in experiment [5] it was 243 nM; in experiment [2] it was 17.8 nM; with human EGFR-His antigen [6] it was 19.6 nM; with human EGFR-His antigen [7], 18 nM. This molecule also displayed a koff with human EGFR-His antigen [3] of 0.00144 s⁻¹. Further, the kon with human EGFR-His antigen [3] is 139000 M⁻¹ s⁻¹.

B3: ChiM6 (antibody, human IgG1, kappa, V domains shown)
VH: QVQLQQSGAELMKPGASVKLSCKATGYRFIPYWIEWIKERPGHGLEWIGEILPGTGRTNYNEKFKGKATFTADTSSNTAYMQLSSLTTEDSAIYYCARYGDDTSGGYYAVDYWGQGTSVTVSS
VL: DIVMTQSSASLAMSLGQRATISCRASESVNILGTNLIHWYQQKPGQPPKLLIYHASNLETGVPARFSGSGSRTDFTLTIDPVEEDDVAIYYCLQSRKIPWTFGGGTKLEIKR
notes: murine variable regions on human IgG1 constant regions; also called chimeric antibody of M6
In experiment [8], B3 came in with an Emax of 70900.

B4: F4-18 (antibody of hybridoma 36G9) (antibody, V domains shown)
VH: EVQLQQSGAELVRPGSSVKMSCKTSGYTFTSYGINWVKQRPGQGLEWIGYIYLGSDYTEYNEKFKGKATLTSDTTSSTAYMQLSSLTSEDSAIYFCARSAGSLFAYWGQGTLVTVSA
VL: DIQLTQSPSSLSASLGERVSLTCRASQDIGITLNWLQQEPDGTIKRLIYATSSLDSGVPKRFSGSRSGSDYSLTISSLESEDFVDYYCLQYASSPYTFGGGTKLEIK
notes: murine antibody tested as hybridoma supernatant; also called hybridoma supernatant 36G9
Turning to B4, the OD450 nm in experiment [9] came to 2.05.

B5: M4 (antibody of hybridoma 17F3) (antibody, V domains shown)
VH: QVQLQQSGAELARPGASVKLSCKASGYSFTTYGVPWVKQRTGQGLEWIGDIYPRSGNTYYNEKFKGKATLTADKSSDTVFMELRSLSSEDSAVYFCAREDYDNYPYALDYWGQGTSVTVSS
VL: EIVLTQSPAIIAASPGEKVTITCSASSSVFNMNWYQQKPGSSPKIWIYDISKLASGVPGRFSGSGSGTSFSLTINSMEAEDVGTYYCQQRSFYPPTFGGGTKVEIK
notes: murine antibody tested as hybridoma supernatant; also called hybridoma supernatant 17F3
In the case of B5, in experiment [9], the OD450 nm amounted to 1.9.

B6: ChiM4 (antibody, human IgG1, kappa, V domains shown)
VH: B5 VH
VL: EIVLTQSPAIIAASPGEKVTITCSASSSVFNMNWYQQKPGSSPKIWIYDISKLASGVPGRFSGSGSGTSFSLTINSMEAEDVGTYYCQQRSFYPPTFGGGTKVEIKR
notes: murine variable regions on human IgG1 constant regions; also called chimeric antibody of M4
Turning to B6, the Emax in experiment [8] was 79500.

B7: F4-1 (antibody of hybridoma 3H6) (antibody, V domains shown)
VH: QIQLQQSGPELVKPGASVKISCKASGYTFTDNYINWVKQRPGQGLEYIGWIYPGSGNNKFNEKFKGKATLTVDTSSRTAFMQLSSLTFEDSAVYFCARDYPFPSYHYGMDYWGQGTSVTVSS
VL: QILLTQSPAIMSASPGERVTITCSASSSVSYIHWFQQKPGTSPKLWIYSTSNLASGVPPRFSGSGSGTSFSLTVSRMEAEDAATYYCQQRSSYPPTFGGGTKLEIK
notes: murine antibody tested as hybridoma supernatant; also called hybridoma supernatant 3H6
Regarding B7, the OD450 nm in experiment [9] came to 2.33.

B8: ZalH4 (antibody, human IgG1, kappa, V domains shown)
VH: QVQLVESGGGVVQPGRSLRLSCAASGFTFSTYGMHWVRQAPGKGLEWVAVIWDDGSYKYYGDSVKGRFTISRDNSKNTLYLQMNSLRAEDTAVYYCARDGVTMVRGVMKDYFDYWGQGTLVTVSS
VL: DIQLTQSPSSLSASVGDRVTITCRASQDISSALVWYQQKPGKAPKLLIYDASSLESGVPSRFSGSESGTDFTLTISSLQPEDFATYYCQQFNSYPLTFGGGTKVEIKR
notes: anti-EGFR zalutumumab variant, human IgG1; also called EGFR monoclonal antibody ZalH4
As to B8, the figures for the Kd (in the experiment with human EGFR-His antigen [4]; in experiment [5]; with human EGFR-His antigen [12]) were 33 nM, 477 nM and 44.3 nM, respectively. For the same molecule, the Emax is 37600 in experiment [10] and 13000 in experiment [11].

B9: ZalH4-9-A (antibody, human IgG1, kappa, V domains shown)
VH: B8 VH
VL: B8 VL
modifications: compound 9-A coupled to reduced cysteines of the antibody (chains and sites not stated), average DAR n=5.94
notes: also called EGFR monoclonal antibody ADC
With B9, the Emax worked out at 31700 in [10] and 14400 in experiment [11].
